Test results published in patent US12559863B2, “Macrocyclic modulators of disease associated protein misfolding and aggregation” (RESQ BIOTECH, priority 2017, dated 2026).

Biological target: T1, Aβ42-GFP (Homo sapiens, UniProt P05067)
T1 construct: a chimeric fusion of the human Aβ(1-42) peptide (Aβ42) with GFP; expressed in transfected cells; host or cells: E. coli BL21(DE3)
Assay: High-throughput sequencing of pSICLOPPS vectors isolated after bacterial sorting for enhanced Aβ42-GFP fluorescence
Conditions: for Reads/Total TXXXR reads (%) / Reads/Total pentapeptide reads (%) / Reads/Total peptide reads (%): after the second round of bacterial sorting; for Reads/Total TXXXR reads (%): relative to total TXXXR reads; for Reads/Total pentapeptide reads (%): relative to total pentapeptide reads; for Reads/Total peptide reads (%): relative to total peptide reads; for Number of reads: high-throughput sequencing of isolated pSICLOPPS-NuX1X2X3-X5 vectors after the second round of bacterial sorting for enhanced Aβ42-GFP fluorescence, selected cyclo-TXXXR pentapeptides
Text: On the other hand, very few bioactive sequences resembling AβC5-34 should exist. […] The peptide-encoding vectors contained in these clones were isolated and the peptide-encoding region of approximately 5.6 million of these plasmids was sequenced using an Ion Torrent high-throughput sequencing platform. […] First, pentapeptides were the dominant peptide species within the sorted pool (FIG. 12D), in agreement with previous observations (FIG. 8G). Second, the most prevalent motif among the selected pentapeptide sequences were TXXXR pentapeptides (˜47% of the selected pentapeptide-encoding pSICLOPPS plasmids; ˜42% of the unique selected pentapeptide sequences) (Table 1), in accordance with previous observations (FIG. 8G). […] At position 2, Thr, Ala, and Val were preferred, while aromatic residues (Phe, Trp, Tyr) were completely excluded from the selected TXXXR peptide pool, in full agreement with our site-directed mutagenesis studies. At the highly variable position 3, the complete absence of the negatively charged amino acids Glu and Asp among the selected sequences was notable (FIG. 12E). […] It is noteworthy, that Lys and Gln residues were practically absent from all positions, while the β sheet-breaking amino acid Pro that is typically included in designed peptide-based inhibitors of amyloid aggregation appeared with strikingly low frequencies (FIG. 12E).
Electrocompetent E. coli BL21(DE3) cells (Novagen, USA) carrying either the expression vector pETSOD1(A4V)-GFP, which produces SOD1(A4V)-GFP under control of the strong bacteriophage T7 promoter, or pETAβ42-GFP, which produces Aβ42-GFP under control of the T7 promoter, were co-transformed with the combined pSICLOPPS-NuX1X2X3-X5 vector library. Approximately 10^8 transformants carrying both the vector library and either pETSOD1(A4V)-GFP or pETAβ42-GFP vectors were harvested, pooled together, and grown in Luria-Bertani (LB) liquid medium containing either 0.005% (pETSOD1(A4F)-GFP) or 0.002% (pETAβ42-GFP) L-arabinose—the inducer of cyclic peptide production—at 37° C. with shaking. When the optical density at 600 nm (OD600) of the bacterial culture was about 0.5, 0.01 (pETSOD1(A4F)-GFP) or 0.1 (pETAβ42-GFP) mM isopropyl-β-D-thiogalactoside (IPTG) was added to the medium to induce overexpression of the reporter. […] The isolated cells were re-grown and screened for additional rounds in an identical manner until the desired enrichment in high-fluorescence clones was achieved.
For the characterization of the initial libraries, a combined pSICLOPPS-NuX1X2X3-X5 vector library was prepared containing approximately equal amounts of each one of the tetra-, penta- and hexapeptide sub-libraries. These samples were digested with NcoI and BsrGI and the resulting ˜250 bp product that contained the variable peptide-encoding region was isolated. High-throughput sequencing analysis was performed using an Ion Torrent high-throughput sequencing platform. From the obtained data, all the sequences with mismatches outside of the variable peptide-encoding region were removed, and only the 12-, 15- or 18-bp-long peptide-encoding sequences were subjected to further analysis. The libraries of the selected cyclic peptides that enhance either SOD1(A4V)-GFP or Aβ42-GFP fluorescence were sequenced in a similar manner, with the only exception being that all sequences including stop codons were discarded from subsequent analysis.

Substance	Reads/Total TXXXR reads (%)	Reads/Total pentapeptide reads (%)	Reads/Total peptide reads (%)	Number of reads
AβC5-2 (TTYAR; cyclic)	16.023	7.506	6.727	304,753
AβC5-3 (TTVDR; cyclic)	11.276	5.282	4.734	214,461
AβC5-5 (TTTWR; cyclic pentapeptide)	9.228	4.323	3.874	175,510
AβC5-7 (TTLHR; cyclic pentapeptide)	7.046	3.301	2.958	134,018
AβC5-12 (TTWAR; cyclic)	3.466	1.624	1.455	65,929
AβC5-13 (TALDR; cyclic)	3.301	1.547	1.386	62,792
AβC5-15 (TANVR; cyclic)	2.516	1.179	1.056	47,855
AβC5-17 (TTTAR; cyclic)	2.110	0.989	0.886	40,135
AβC5-18 (TTIAR; cyclic)	1.953	0.915	0.820	37,150
AβC5-20 (TTISR; cyclic)	1.948	0.912	0.818	37,044
AβC5-21 (TTWCR; cyclic)	1.908	0.894	0.801	36,295
AβC5-22 (TVLWR; cyclic)	1.883	0.882	0.791	35,820
AβC5-26 (TAWCR; cyclic)	1.493	0.699	0.627	28,391
AβC5-27 (TTSAR; cyclic)	1.482	0.694	0.622	28,188
AβC5-29 (TTLER; cyclic)	1.447	0.678	0.607	27,514
AβC5-30 (TSTAR; cyclic)	1.444	0.676	0.606	27,456
AβC5-35 (TVRDR; head-to-tail cyclic)	1.337	0.626	0.561	25,428
AβC5-41 (TGWAR; head-to-tail cyclic)	1.145	0.537	0.481	21,784
AβC5-44 (TAWAR; cyclic pentapeptide)	1.094	0.512	0.459	20,807
AβC5-45 (TTWVR; cyclic pentapeptide)	1.094	0.512	0.459	20,798

Substance	Reads/Total TXXXR reads (%)	Reads/Total pentapeptide reads (%)	Reads/Total peptide reads (%)	Number of reads
AβC5-46 (TLLWR; cyclic pentapeptide)	1.049	0.492	0.440	19,957
AβC5-47 (TTIDR; cyclic pentapeptide)	1.038	0.486	0.436	19,735
AβC5-50 (TALAR; cyclic pentapeptide)	1.022	0.479	0.429	19,433
AβC5-51 (TSVDR; cyclic pentapeptide)	1.012	0.474	0.425	19,249
AβC5-53 (TTVWR; cyclic pentapeptide)	0.982	0.460	0.412	18,669
AβC5-66 (TTHWR; cyclic pentapeptide)	0.752	0.352	0.316	14,304
AβC5-67 (TARDR; cyclic pentapeptide)	0.747	0.350	0.314	14,213
AβC5-73 (TTRDR; cyclic pentapeptide)	0.678	0.318	0.285	12,894
AβC5-80 (TSVHR; cyclic)	0.535	0.251	0.225	10,181
AβC5-89 (TATDR; cyclic)	0.420	0.197	0.176	7,984
AβC5-94 (TVLFR; cyclic)	0.391	0.183	0.164	7,442
AβC5-102 (TTYNR; cyclic)	0.319	0.149	0.134	6,067
AβC5-105 (TVRWR; cyclic)	0.287	0.134	0.120	5,450
AβC5-117 (TTRCR; cyclic)	0.223	0.104	0.094	4,237
AβC5-118 (TTFWR; cyclic)	0.222	0.104	0.093	4,216
AβC5-121 (TIKDR; cyclic)	0.209	0.098	0.088	3,970
AβC5-123 (TTVHR; cyclic)	0.177	0.083	0.074	3,371
AβC5-126 (TTLLR; cyclic)	0.159	0.074	0.067	3,016
AβC5-129 (TTLFR; cyclic)	0.138	0.065	0.058	2,630
